In the Immune Epitope Database (IEDB):

Columns and labels:
[1] = molecular target: HLA-A*26:01; assay: IEDB peptide-MHC binding, purified MHC/direct/fluorescence; filed as Kd, often an IC50 or EC50 that approximates it; ≥ and ≤ were set here for values at or beyond the usual limits of such assays; details: source organism: West Nile virus
[2] = molecular target: HLA-A*26:01; assay: IEDB peptide-MHC binding, purified MHC/competitive/radioactivity; filed as Kd, often an IC50 or EC50 that approximates it; ≥ and ≤ were set here for values at or beyond the usual limits of such assays
[3] = molecular target: HLA-A*68:02; assay: as above
[4] = molecular target: HLA-B*46:01; assay: IEDB peptide-MHC binding, purified MHC/competitive/fluorescence; filed as Kd, often an IC50 or EC50 that approximates it; ≥ and ≤ were set here for values at or beyond the usual limits of such assays; details: source organism: Vibrio vulnificus CMCP6
[5] = molecular target: HLA-B*39:01; assay: as above; details: source organism: Bacillus anthracis str. A0488
[6] = molecular target: HLA-A*02:01; assay: IEDB peptide-MHC binding, purified MHC/competitive/radioactivity; filed as Kd, often an IC50 or EC50 that approximates it; ≥ and ≤ were set here for values at or beyond the usual limits of such assays
[7] = molecular target: HLA-A*02:02; assay: as above; details: source organism: HIV-1 M:B_ARV2/SF2
[8] = molecular target: HLA-A*02:03; assay: as above; details: source organism: HIV-1 M:B_ARV2/SF2
[9] = molecular target: HLA-A*02:06; assay: as above; details: source organism: HIV-1 M:B_ARV2/SF2
[10] = molecular target: HLA-B*44:02; assay: as above
[11] = molecular target: HLA-B*44:03; assay: as above
[12] = molecular target: HLA-A*01:01; assay: as above
[13] = molecular target: HLA-A*29:02; assay: as above
[14] = molecular target: HLA-A*30:01; assay: as above
[15] = molecular target: HLA-A*30:02; assay: as above
[16] = molecular target: HLA-A*32:01; assay: as above
[17] = molecular target: HLA-B*40:01; assay: as above; details: source organism: Dengue virus 1 Brazil/97-11/1997
[18] = molecular target: HLA-B*15:01; assay: IEDB peptide-MHC binding, purified MHC/competitive/fluorescence; filed as Kd, often an IC50 or EC50 that approximates it; ≥ and ≤ were set here for values at or beyond the usual limits of such assays; details: source organism: Human immunodeficiency virus 1
[19] = molecular target: HLA-A*02:01; assay: as above; details: source organism: Vaccinia virus Tian Tan
[20] = source organism: Dengue virus 1 Brazil/97-11/1997
[21] = source organism: HIV-1 M:B_ARV2/SF2
[22] = source organism: Dengue virus 2 Jamaica/1409/1983
[23] = source organism: Mammarenavirus brazilense
[24] = source organism: Vaccinia virus WR
[25] = source organism: Mammarenavirus guanaritoense

## ETPQGLAKI
[1]
  Kd: 5560 nM

## ETQHGTVLV
[2]; [20]
  Kd: 4910 nM
[3]; [20]
  Kd: 2.52 nM

## EVAETQHGTV
[3]; [20]
  Kd: 1.53 nM

## FAIGDWEPY
[4]
  Kd: 74.1 nM

## FKWGKKIIL
[5]
  Kd: 12.6 nM

## FLGKIWPSYK
[6]; [21]
  Kd: 89.9 nM
[7]
  Kd: 449 nM
[8]
  Kd: 448 nM
[9]
  Kd: 3010 nM
[3]; [21]
  Kd: ≥ 41200 nM

## GEKALKLSWF
[10]; [20]
  Kd: 373 nM
[11]; [20]
  Kd: 135 nM

## GERKKLKPRW
[10]; [22]
  Kd: 839 nM
[11]; [22]
  Kd: 1450 nM

## GLDLQPCIDL
[3]; source organism: Homo sapiens
  Kd: ≥ 60000 nM

## GLRDCTMLV
[6]; source organism: hepatitis C virus genotype 1a
  Kd: 421 nM

## GSLLHGLWPY
[12]; [23]
  Kd: 496 nM
[2]; [23]
  Kd: ≥ 27300 nM
[13]; [23]
  Kd: 401 nM
[14]; [23]
  Kd: 102 nM
[15]; [23]
  Kd: 40.4 nM
[16]; [23]
  Kd: 1110 nM

## HIIIVALTI
[16]; [24]
  Kd: 78.8 nM

## IETLMLLAL
[17]
  Kd: 10.7 nM
[10]; [20]
  Kd: 1340 nM

## IILVIIVVI
[16]; [24]
  Kd: 415 nM

## ILGLNKIVRMY
[18]
  Kd: ≥ 20000 nM

## ILNDEQLNL
[19]
  Kd: 0.7 nM

## ILNFVAHVY
[12]; [25]
  Kd: 7940 nM
[2]; [25]
  Kd: 12000 nM
[13]; [25]
  Kd: 1.24 nM
[14]; [25]
  Kd: 3140 nM
[15]; [25]
  Kd: 0.522 nM
[16]; [25]
  Kd: 939 nM

## ITHFCSFNI
[16]; [24]
  Kd: ≥ 20900 nM

## ITIAVASGL
[3]; source organism: Dengue virus 4 Dominica/814669/1981
  Kd: 31.1 nM

## ITPRSPSVEV
[3]; source organism: Dengue virus 4 Philippines/H241/1956
  Kd: 575 nM

## ITQLMPFGC
[6]; source organism: Homo sapiens
  Kd: 6290 nM
